The supplement of paper PMC9233669
Fewer inactive variants are shown than the library holds.

Key:
biotinyl-Phe-oxazolone = experiment: self-aminoacylation, catalytic enhancement (BFO) (fold over background); higher = more active; k-Seq, kA / k0A0; sequences stand for … in GGGAAUGGAUCCACAUCUACGAAUUC…UUCACUGCAGACUUGACGAAGCUG
How it was run: (§1)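 Working in 50 μL HEPES/NaCl/KCl/MgCl2/CaCl2 buffer with 5% acetonitrile at pH 6.9–7.0, mutagenized RNA pools (0.43 μM; 21-nt variable region) were reacted with 2–1250 μM of each biotinyl-aminoacyl-oxazolone for 90 minutes at room temperature. Streptavidin capture followed, with quantification by triplicate qPCR and Illumina sequencing. Catalytic enhancement is reported as median kA over the uncatalyzed rate, the low-activity peak of a bimodal Gaussian fit to the data.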

biotinyl-Ile-oxazolone = experiment: self-aminoacylation, catalytic enhancement (BIO) (fold over background); higher = more active; k-Seq, kA / k0A0; sequences stand for … in GGGAAUGGAUCCACAUCUACGAAUUC…UUCACUGCAGACUUGACGAAGCUG
How it was run: as §1

biotinyl-Met-oxazolone = experiment: self-aminoacylation, catalytic enhancement (BMO) (fold over background); higher = more active; k-Seq, kA / k0A0; sequences stand for … in GGGAAUGGAUCCACAUCUACGAAUUC…UUCACUGCAGACUUGACGAAGCUG
How it was run: as §1

biotinyl-Val-oxazolone = experiment: self-aminoacylation, catalytic enhancement (BVO) (fold over background); higher = more active; k-Seq, kA / k0A0; sequences stand for … in GGGAAUGGAUCCACAUCUACGAAUUC…UUCACUGCAGACUUGACGAAGCUG
How it was run: as §1

biotinyl-Leu-oxazolone = experiment: self-aminoacylation, catalytic enhancement (BLO) (fold over background); higher = more active; k-Seq, kA / k0A0; sequences stand for … in GGGAAUGGAUCCACAUCUACGAAUUC…UUCACUGCAGACUUGACGAAGCUG
How it was run: as §1

biotinyl-Trp-oxazolone = experiment: self-aminoacylation, catalytic enhancement (BWO) (fold over background); higher = more active; k-Seq, kA / k0A0; sequences stand for … in GGGAAUGGAUCCACAUCUACGAAUUC…UUCACUGCAGACUUGACGAAGCUG
How it was run: as §1

| Sequence | self-aminoacylation (biotinyl-Phe-oxazolone) | self-aminoacylation (biotinyl-Ile-oxazolone) | self-aminoacylation (biotinyl-Met-oxazolone) | self-aminoacylation (biotinyl-Val-oxazolone) | self-aminoacylation (biotinyl-Leu-oxazolone) | self-aminoacylation (biotinyl-Trp-oxazolone) |
| --- | --- | --- | --- | --- | --- | --- |
| CUACUUGAAAUAAUCGGUCUG [Fam1A.1 aminoacylation ribozyme variant] | 0.723 | 0.785 | 0.801 | 0.784 | 0.68 | 0.619 |
| AUUUACCUAGGUCAUCGGGCG [Fam2.2 aminoacylation ribozyme variant] | 3.65 | 2.57 | 3.93 | 3 | 4.32 | 3.25 |
| AAGGUUGCUAUUAGUCGCAAG [Fam3.1 aminoacylation ribozyme variant] | 2.24 | 1.66 | 1.3 | 1.18 | 1.56 | 1.53 |
| AUUAUCCUGGUCAUCGAGUGU [Fam2.1 aminoacylation ribozyme variant] | 15.3 | 4.25 | 11.1 | 4.73 | 10.2 | 9.45 |
| CCUCACUUCAAGCAAUAGGUC [Fam1B.1 aminoacylation ribozyme variant] | 1.26 | 0.573 | 0.468 | 0.592 | 0.553 | 0.622 |
| CCACACUUCAAGUAAUCGGAC [Fam1B.1 aminoacylation ribozyme variant] | 0.783 | 0.743 | 0.826 | 0.907 | 0.696 | 1.05 |
| AUUACCCCGGACAUCGAGUGA [Fam2.1 aminoacylation ribozyme variant] | 19.6 | 2.38 | 4.74 | 2.48 | 4.04 | 5.47 |
| AUUCCCCUGGUCAUCGACUGA [Fam2.1 aminoacylation ribozyme variant] | 1.59 | 1.54 | 1.23 | 1.64 | 1.25 | 1.41 |
| AUUACCCUCGGCAUCGAGUGA [Fam2.1 aminoacylation ribozyme variant] | 59.4 | 4.6 | 10.2 | 4.45 | 11.1 | 13.9 |
| GUACUUCAAACAAUCCGUCUG [Fam1A.1 aminoacylation ribozyme variant] | 2.63 | 1.49 | 1.02 | 1.24 | 1.45 | 2.16 |
| AUUCUCCUAGGUCAUUGGGUG [Fam2.2 aminoacylation ribozyme variant] | 44 | 3.96 | 5.76 | 3.87 | 7.5 | 6.02 |
| AAGUUUGCUAAUAGAUGCAAG [Fam3.1 aminoacylation ribozyme variant] | 0.814 | 0.954 | 0.789 | 0.911 | 0.82 | 0.784 |
| CCACACUUCAGGCAAUCAGUC [Fam1B.1 aminoacylation ribozyme variant] | 0.955 | 0.658 | 0.724 | 1.05 | 0.636 | 0.796 |
| CCACACUUCAAGGAACCGGUC [Fam1B.1 aminoacylation ribozyme variant] | 1.2 | 1.04 | 1.04 | 0.945 | 0.984 | 0.809 |
| GUUACCCUGUUCAUCGAGUGA [Fam2.1 aminoacylation ribozyme variant] | 37.5 | 3.34 | 7 | 3.5 | 7.51 | 8.4 |
| UUUCACCUAGGUCAUCGGGGG [Fam2.2 aminoacylation ribozyme variant] | 21.3 | 3.52 | 2.73 | 3.25 | 4.45 | 3.77 |
| CUACUUCAAACUAACGGUCUG [Fam1A.1 aminoacylation ribozyme variant] | 0.924 | 0.778 | 0.787 | 0.75 | 0.796 | 0.665 |
| CCUCACUUCAAGCGAUCGGUC [Fam1B.1 aminoacylation ribozyme variant] | 2.38 | 1.19 | 1.27 | 1.29 | 1.53 | 2.72 |
| AAGUUUGCUAGUAGUGGCAAG [Fam3.1 aminoacylation ribozyme variant] | 1.2 | 0.893 | 0.882 | 0.814 | 0.71 | 0.556 |
| AUUAGCGUGGUCAUCGAGUGA [Fam2.1 aminoacylation ribozyme variant] | 13.5 | 2.8 | 3.55 | 3.1 | 4.67 | 5 |
| CUCCUUCAAAAAAUCGGUCUG [Fam1A.1 aminoacylation ribozyme variant] | 11.8 | 1.16 | 1.09 | 1.01 | 1.3 | 9.62 |
| CUACUUCAAACAAUCAGUUUG [Fam1A.1 aminoacylation ribozyme variant] | 15.7 | 0.803 | 0.779 | 0.73 | 0.861 | 6.56 |
| CAACUUCAAACAAUCGGUGUG [Fam1A.1 aminoacylation ribozyme variant] | 27.3 | 1.92 | 2.15 | 1.7 | 2.53 | 16.5 |
| CCACACUUCAUGCAAUUGGUC [Fam1B.1 aminoacylation ribozyme variant] | 0.619 | 0.658 | 0.764 | 0.791 | 0.627 | 0.43 |
| AUGCACCUAGGUCAUCCGGUG [Fam2.2 aminoacylation ribozyme variant] | 57.6 | 4.42 | 6.24 | 4.06 | 7.51 | 7.68 |
| CCACCCUUCAAGCAAUCGGUG [Fam1B.1 aminoacylation ribozyme variant] | 63.7 | 4.86 | 7.37 | 4.61 | 10.2 | 6.85 |

| Sequence | self-aminoacylation (biotinyl-Phe-oxazolone) | self-aminoacylation (biotinyl-Ile-oxazolone) | self-aminoacylation (biotinyl-Met-oxazolone) | self-aminoacylation (biotinyl-Val-oxazolone) | self-aminoacylation (biotinyl-Leu-oxazolone) | self-aminoacylation (biotinyl-Trp-oxazolone) |
| --- | --- | --- | --- | --- | --- | --- |
| AUUCACCUAGAUCUUCGGGUG [Fam2.2 aminoacylation ribozyme variant] | 12.3 | 2.18 | 3.09 | 2.54 | 3.75 | 2.8 |
| CUACUUCACACAAUCGGUGUG [Fam1A.1 aminoacylation ribozyme variant] | 0.67 | 1.07 | 1.65 | 1.25 | 1.22 | 0.513 |
| AUUCGCCUAGGUGAUCGGGUG [Fam2.2 aminoacylation ribozyme variant] | 20.6 | 2.56 | 2.35 | 2.48 | 3.46 | 3.31 |
| AUUACCCUGGUGAUCGAGUAA [Fam2.1 aminoacylation ribozyme variant] | 0.541 | 1.24 | 1.54 | 1.23 | 1.21 | 2.15 |
| AUUGCCCUGCUCAUCGAGUGA [Fam2.1 aminoacylation ribozyme variant] | 5.55 | 1.22 | 1.86 | 1.61 | 1.91 | 1.04 |
| AUUACCCUGGUGAUCGAGCGA [Fam2.1 aminoacylation ribozyme variant] | 5 | 2.06 | 1.76 | 1.95 | 1.93 | 1.82 |
| CCACACUUCAGGCAAUGGGUC [Fam1B.1 aminoacylation ribozyme variant] | 0.992 | 0.733 | 0.802 | 0.722 | 0.702 | 0.952 |
| CAGUUUGCUAAUCGUCGCAAG [Fam3.1 aminoacylation ribozyme variant] | 0.994 | 0.971 | 0.993 | 1.07 | 1.32 | 1.05 |
| AUUCAGCUAGGUCUUCGGGUG [Fam2.2 aminoacylation ribozyme variant] | 36.2 | 4.2 | 5.01 | 4.24 | 5.34 | 4.96 |
| AAGUUUGCUUAUAAUCGCAAG [Fam3.1 aminoacylation ribozyme variant] | 1.03 | 0.833 | 0.688 | 0.815 | 0.739 | 1.02 |
| AUUACCCUAGUCGUCGAGUGA [Fam2.1 aminoacylation ribozyme variant] | 1.04 | 0.866 | 0.893 | 0.97 | 0.845 | 0.759 |
| AUAACCGUGGUCAUCGAGUGA [Fam2.1 aminoacylation ribozyme variant] | 25.1 | 2.64 | 5.06 | 2.85 | 5.49 | 6.26 |
| AAUUUUGCUAAUAGCCGCAAG [Fam3.1 aminoacylation ribozyme variant] | 1.7 | 1.74 | 1.33 | 1.44 | 1.49 | 1.31 |
| AUUACCAUGGACAUCGAGUGA [Fam2.1 aminoacylation ribozyme variant] | 24.1 | 2.91 | 6.51 | 3.14 | 6.81 | 8.17 |
| CCACACUUCAAGGCAUCGGUC [Fam1B.1 aminoacylation ribozyme variant] | 1.18 | 1.03 | 1.02 | 1.32 | 1.18 | 1.16 |
| AAGUUUGCUAUUAGUCGCAUG [Fam3.1 aminoacylation ribozyme variant] | 1.98 | 1.01 | 0.953 | 0.79 | 1.21 | 0.858 |
| AAGUUUGCUCAUAGCCGCAAG [Fam3.1 aminoacylation ribozyme variant] | 1.35 | 0.88 | 0.891 | 0.895 | 0.719 | 0.78 |
| AUUACCCUGGUCAUGGCGUGA [Fam2.1 aminoacylation ribozyme variant] | 125 | 7 | 16.2 | 10.3 | 17.4 | 19.4 |
| CUACUUCAAACAUGCGGUCUG [Fam1A.1 aminoacylation ribozyme variant] | 3.21 | 1.27 | 1.39 | 1.34 | 1.61 | 0.769 |
| AUUACCCGGGUCAUCGACUGA [Fam2.1 aminoacylation ribozyme variant] | 0.62 | 0.845 | 0.768 | 0.837 | 0.675 | 0.755 |
| AUUCACCUAGGUCGCCGGGUG [Fam2.2 aminoacylation ribozyme variant] | 18.5 | 3.4 | 3.99 | 3.25 | 3.8 | 3.38 |
| AUUUACAUAGGUCAUCGGGUG [Fam2.2 aminoacylation ribozyme variant] | 39 | 3.38 | 5.69 | 3.38 | 6.44 | 5.5 |
| AUUACACUGGGCAUCGAGUGA [Fam2.1 aminoacylation ribozyme variant] | 27.1 | 3.53 | 5.92 | 3.44 | 6.5 | 7.85 |
| AUUACCCUGAUCAUCGUGUGA [Fam2.1 aminoacylation ribozyme variant] | 27.5 | 2.37 | 5.72 | 2.67 | 5.65 | 5.88 |
| CCACACUUCAGGCAAUUGGUC [Fam1B.1 aminoacylation ribozyme variant] | 0.558 | 0.887 | 0.647 | 0.83 | 0.823 | 0.556 |
